The values that follow come from publication PMC2764547 (Structure (London, England : 1993), 2009).

Substitutions are numbered along the chain they refer to. Names and notes keep the numbering of the source. Values joined by “and” are separate entries in the source; they are usually repeats but may differ in a detail not shown here. Identical values can stand only once. Where a SMILES comes first, the peptide text is derived from it. Where no end group is shown, it is not given here. fluorescein = fluorescein-β-alanine label at the N-terminus; βAla = NCCC(=O)O

One data set deals with wild-type DegS (Escherichia coli, UniProt P0AEE3). The data set can be described thus: biochemical. On the set-up: species or system E. coli.
wild-type DegS, sequence (P0AEE3 27-355): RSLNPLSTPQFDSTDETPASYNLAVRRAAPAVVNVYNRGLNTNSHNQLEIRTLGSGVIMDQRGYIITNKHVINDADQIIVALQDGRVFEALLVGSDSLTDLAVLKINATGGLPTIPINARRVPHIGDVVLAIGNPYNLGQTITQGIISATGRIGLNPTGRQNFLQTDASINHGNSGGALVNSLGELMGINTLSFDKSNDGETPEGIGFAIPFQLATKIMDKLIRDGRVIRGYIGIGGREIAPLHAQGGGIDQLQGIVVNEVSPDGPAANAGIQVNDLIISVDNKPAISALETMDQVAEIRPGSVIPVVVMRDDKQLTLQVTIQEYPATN
In a further data set the target is H198P DegS (Escherichia coli, UniProt P0AEE3, H198P). The data set is described as follows: biochemical. On the set-up: species or system E. coli.
The target of data set [1] is fluorescein-β-alanine-… OMP peptide. The data set can be described thus: fluorescence polarisation. In general terms: Fluorescence polarisation rises when a labelled molecule tumbles more slowly, as on binding a larger partner.
For data set [2], the target named is T1, H198P E. coli DegS (residues 27-355) (E. coli) (UniProt P0AEE3).
T1 sequence: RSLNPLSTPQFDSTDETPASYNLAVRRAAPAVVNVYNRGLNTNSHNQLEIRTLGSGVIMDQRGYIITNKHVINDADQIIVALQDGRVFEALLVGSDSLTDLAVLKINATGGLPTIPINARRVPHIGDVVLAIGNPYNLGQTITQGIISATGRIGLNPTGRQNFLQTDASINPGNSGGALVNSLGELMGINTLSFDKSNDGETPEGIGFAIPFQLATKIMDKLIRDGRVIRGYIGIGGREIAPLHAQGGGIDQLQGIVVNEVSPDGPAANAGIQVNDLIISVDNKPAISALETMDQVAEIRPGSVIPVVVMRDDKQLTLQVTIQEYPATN

Data set [3] concerns the target T2, H198P/D320A E. coli DegS (residues 27-355) (E. coli) (UniProt P0AEE3).
T2 sequence: T1 sequence with D294A

Data set [4] addresses T3, H198P/K243D E. coli DegS (residues 27-355) (E. coli) (UniProt P0AEE3).
T3 sequence: T1 sequence with K217D

The data set “crystal structure” deals with the molecule itself. The data set is described as follows: crystal structure.
For data set [5], the system named is RseA. The data set can be described thus: Steady-state RseA cleavage. Type of data set: biochemical, E. coli. The following applies: for Km: KM of RseA; for Km / Vmax: OMP peptide: None, 23 ± 1 °C, average of two or more determinations.
Data set [6] concerns RseA. The data set can be described thus: Cleavage of sub-KM RseA by DegS variants without OMP peptide. Type of data set: biochemical, E. coli. The following applies: no OMP peptide.
Data set [7] has as its target T4, wild-type E. coli DegS (residues 27-355) (E. coli, UniProt P0AEE3 27-355).
T4 sequence (looked up): T1 sequence with P172H
The data set is described as follows: fluorescence polarisation.

Data set [8] has as its target T5, H198P E. coli DegS (residues 27-355) (E. coli, UniProt P0AEE3 27-355, H198P).
T5 sequence (looked up): T1 sequence
The data set can be described thus: fluorescence polarisation.

Data set [9] has as its target T6, K243D E. coli DegS (residues 27-355) (E. coli, UniProt P0AEE3 27-355, K243D).
T6 sequence (looked up): T1 sequence with P172H, K217D
The data set is described as follows: fluorescence polarisation.

Data set [10] concerns the target T7, H198P/K243D E. coli DegS (residues 27-355) (E. coli, UniProt P0AEE3 27-355, H198P | K243D).
T7 sequence (looked up): T1 sequence with K217D
The data set can be described thus: fluorescence polarisation.

The target of data set [11] is T8, D320A E. coli DegS (residues 27-355) (E. coli, UniProt P0AEE3 27-355, D320A).
T8 sequence (looked up): T1 sequence with P172H, D294A
The data set is described as follows: fluorescence polarisation.

Data set [12] deals with T9, H198P/D320A E. coli DegS (residues 27-355) (E. coli, UniProt P0AEE3 27-355, H198P | D320A).
T9 sequence (looked up): T1 sequence with D294A
The data set can be described thus: fluorescence polarisation.

For the molecule DNRDGNVYQF, the concentration giving a half-maximal response (EC50) (usually the concentration giving half of the maximal effect) at wild-type DegS amounted to 50 ± 5 µM; on H198P DegS it was 4.4 ± 0.6 µM.
Regarding “PDZ domain of E. coli DegS (domain or fragment)”, the dissociation constant (Kd) (commonly the equilibrium constant for the complex coming apart) in [1] was found to be 0.6 µM. This lies in the sub-micromolar range.
Take `NC(=O)CC[C@H](NC(=O)[C@@H](N)Cc1ccc(O)cc1)C(=O)N[C@@H](Cc1ccccc1)C(=O)O` [YQF] (H-Tyr-Gln-Phe-OH): the figures for the EC50 at wild-type DegS and on H198P DegS were 260 ± 10 µM and 29 ± 5 µM, respectively.

B1: 35S-labeled variant of the periplasmic domain of E. coli RseA (residues 121-216) (domain or fragment)
chain: YNGQSETSQQPETPVFNTLPMMGKASPVSLGVPSEATANNGQQQQVQEQRRRINAMLQDYELQRRLHSEQLQFEQAQTQQAAVQVPGIQTLGTQSQ
modifications: 35S-labeled
Regarding B1, in data set [2], the KM of RseA cleavage, with saturating YQF peptide was found to be 69 µM; the KM of RseA cleavage, with saturating YYF peptide was 64 µM; the KM of RseA cleavage, with saturating … peptide is 94 µM and 130 µM; the KM of RseA cleavage, without OMP peptide turned out to be 560 µM. In addition, in [3], the KM of RseA cleavage, without OMP peptide was found to be 110 µM. Also, the KM of RseA cleavage, without OMP peptide in [4] came out at 70 µM.

B2: DFP-modified H198P/D320A E. coli DegS (residues 27-355) (enzyme, UniProt P0AEE3 27-355, looked up)
chain: T1 sequence with D294A
modifications: Ser201 modified by diisopropylfluorophosphate (DFP); seen as monoisopropylphosphorylserine (Mis201) in the crystal structures
Regarding B2, the stoichiometry N (usually the number of molecules, sites or subunits per partner or assembly) in the data set “crystal structure” came out at 3.

B3: H198P/K243D: DegS double mutant (protein)
chain: T1 sequence with K217D
modifications: left off: His6, N-terminal, state not stated
For B3, in the data set with RseA [5], the Michaelis constant (Km) (commonly the substrate concentration at which the rate is half of its maximum) turned out to be 70 ± 5 µM and the Vmax was determined as 1.2 ± 0.1 s^-1 enz^-1.

B4: H198P: DegS variant with His^198 substituted by proline (protein)
chain: T1 sequence
modifications: left off: His6, N-terminal, state not stated
Regarding B4, in the data set on RseA [6], the “RseA cleavage rate relative to wild-type DegS” value is on record as 150 fold. For the same molecule, in the data set with RseA [5], the Michaelis-Menten constant (Km) was 560 ± 40 µM and the Vmax is 1.4 ± 0.3 s^-1 enz^-1. Further, in the data set with RseA [5] (high concentrations of RseA, no OMP peptide), the “activity with high RseA alone relative to best OMP-peptide activation” value is recorded as “about 60%”.

B5: H198P/D320A: DegS double mutant (protein)
chain: T1 sequence with D294A
modifications: left off: His6, N-terminal, state not stated
On to B5, for which, in the data set on RseA [5], the Km was 110 ± 10 µM and the Vmax is given as 1.6 ± 0.2 s^-1 enz^-1.

B6: fluorescein-β-alanine-KKDNRDGNYYF OMP peptide (peptide)
peptide: {fluorescein-βAla}-KKDNRDGNYYF
Consider B6, for which the Kd stood at 4.6 µM in data set [7]; 1.9 µM in [8]; 3.1 µM in data set [9]; 0.68 µM in [10]; 1.1 µM in [11]; 0.45 µM in data set [12].
